Reference: the NTF2 design screens of Basanta et al. (2020)

Assay: protease stability score; higher = more stable; yeast display proteolysis, trypsin and chymotrypsin;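 note: relative to predicted unfolded state with 0 unfolded-like and 1 meaning tenfold more protease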

| Sequence | protease stability score |
| --- | --- |
| NEDEKLAEDAIQEYRHSVKTGDENFLKHLADPDVRMDYNGREYHGREEWEKFLRNILRHLRPKDFRIKHFDYYGDYMHFEGLHVGQINGKETHLHTEIIFLKINGRWHLRSIRIE | 0.401 |
| NEDEREFRIFLELFILAMRTGDETTFKKLLDPDVKFRINGKEYHGWEEVWHVLEEIRIHDIKLTDMERVGDKLHLITRVEGEFDGRRHEIDTRLHVRKIDGRWLLRTVEIS | 2.13 |
| NEDERETELFLRLFRRALLTGDWRAIEDLMDPNVMIHVNGREFHGREQYYKIVMNELTHWRLHHTKIDDIRLYDGVLRVQLRLQGEINGREDFLHLHVIIEKIDGKWIFRSVEIR | 1.91 |
| NEDERLIKEFWRLLQEALKTGNWEMIAELIDPHVRIDIGDKQIHGREEFIKLVDHIRFDDVKTELKTVHVFDGRVEVRGHLTVHKTFNGQKIDERTDVNLDIEKINGVWYMTYVRIE | 2.06 |
| NEDHDVLNDLMTDHVHAVLTGDFRTLIHNIDPHTRVDINGVHFHGREEAVHLFEDLANRVPGVKLDVEEWRTYGDKLRSNVRWHFDGRTIDIHLVFLKINGKWLLESVKIN | 1.9 |
| NEEDEFMEVAVELMERTLKTGDERLLSELVDPNARIEFNGREWHGRKFLETLWRELTKKFPNMKVMFKIEYINSFEGHIEIEGILESNFDGRVESRRVHYNVSKINGRWIIEEIEIQ | 1.35 |
| NEEEDINHHIVELFFHLLHTGDWEELEKLADPHARLEINGRRFHGRENVVTQLWELLHRIDHVEIRDLRVQGDKVHVDTRLRIGDKEKKTEWDIVVVNGKIKRSRVRVH | 2.02 |
| NEEEEDMEHATKEHMELWRTGDEKRITELADPNVRVHVGEKEYHGREKLSEHIMRLGFDHVELTHFDVQGEKVISHIRVRFNGRDIEFLLIVLKVDGRWYEEQVNIRVS | 0.66 |
| NEEEEEIKTLSEEILRAWMTGDFDHLRDMMDPNTKLDINGKEVHGREILINLLRKIMEDLGVKHIHIRHKEHQGNWTHLDERQIVGDKRINVHYIWVVVDGRIHSIRIEMR | 1.16 |
| NEEEEESKFANELWEETVKTGDERLNRSLADPNTRFHINGVDLHGWESMDETARRYKNITVRLHDMRTYNGRVHLDFEMRVGEFTTKVIIIARKFDGRWILKSIIVH | 1.2 |
| NEEEEESKWAYEEMIKVVKTGDEERLKELADPHTRVHMLVNGRLHNLHGREFLVLAWRLLGFDHLELKRMHVEVVNGRVHINLHGHVEINGRTHTLHIHIDAEKVDGRWIVRRVEIRSE | 1.5 |
| NEEEEESRRAFHLLVELLRTGDEESFTKLADPHMRIIVDGREIHGREEMRRFMEEHWERFPNMKVRIEHFRVQGDKVTIHTVVHIGDKEIEVHIHARKVNGRWIMKELIIVTR | 0.552 |
| NEEEEHIFELWELFLKASHTGDEDSLKEFADPNTRQIVDGQEIHGREKFTEHLSWRAKELRLESVHIRRLHIIDGRIHVDGLIRGRINGREIEIETEVISIKVNGKWILKEMNFK | 1.28 |
| NEEEELLHRLAKRFIELFLTGDWEVMEKLFDPHVKIDVNGRESHGREQVWHLLMHLLHELRIHHILIRSFDVFDGRAHSSVEVNGEFNGKRDLTEAEVVIVSVDGKMKSVSIKLR | 1.23 |
| NEEEETARHAIEEFVRVLMTGDWRTLERLLDPNYRIYQGDKTYIGMEHFLELWVHILDRIKNLRLEIHSYEIQGEKVHIHTILNYDGRDIEYVIIQIKINGRWLLHSLHFL | 1.24 |
| NEEEHELELAYRWYEESILTGDEDELTHLLDPHVRLQYGDKEFHGREIVLHFFHKHWREMGAKYIEVHSISLYGDKIVFDSTLHINGRTHRVHVTSRKVDGRWRIRSMRIN | 1.63 |
| NEEEHFMKEALEIWLHFFRTGDERDIQREFDPNARFEFENHTSHGRESVRELLTRLFHDLGINHVQFESIRVQGDKVEIHGHFFVDGRRYDFEMNSVKINGRWLNHTIRLR | 1.12 |
| NEEEHKLEEEFERLMHLLLTGDEEKLHRLADPNVKVNVNGKDLHGMELFFHVWWEELKRYDYWHITIRHIDSQGNKADSEVELNLVFNGKEIRIDSRMHLEVVNGRIKRIEIRPI | 1.63 |
| NEEEHTFEIAIRILREMWETGDEKLSQELADPNARLDIGDKHFHGRESLRHRVHEMRIEHTDIHSYHTINGRVHMDWRVDGFINGQRHDTRMHLDVIKIDGRWIIKNVEVK | 0.571 |
| NEEEKIIKKDIEKEITAWETGDFDTLDHLLDPHARMDINGKDLHGREVLKTHFHEEWNRLGLEKVEIHIQDFRVIDGRVHIDGYMNVNGRHQKVRFIARKVNGRWIIHEVEFR | 1.32 |
| NEEEKLSEEWSDHLLHNLITGDEEMLKRFMDPHTWAESEVDGQDEKYHGREQALHMVYRVIHRLGFNHFHIHRHRVIGDKIHVELRIVVGDKEVDAHFETIIINGKVHRIRIHVTKR | 0.323 |
| NEEEKRMVEEHEKFWNFVRTGDEDTVRDLIDPHARVIQGNKILHGWEEAVRWMKEIRIHDIRIHSSHEVDGRVTITGDMDFEFNGKRHILEVRIFLLKIDGRWIHTFIQID | 1.33 |
| NEEEQEILEDVEEHIRAEYTGDEEVLDNLADPNTRIHYGEKELHGREEWLQLVHDEHNRFKGMKIEVIIRHIDIYDGRVRSEGELHIHVGDKEYHVDVQMILTKVNGRWLLTRIHFH | 0.093 |
| NEEERENIRIFMMWIEDLVTGNWDRIEHLADPHYRQDVNGRHIHGRDTFAQMVREEMHRIDHHEIKLRHVSVQGNKLRAHVEINLIIGEKRIEKEVIVDLNVINGVLHEVKIVVR | 1.04 |
| NEEFRDAQMAAHEFINVMETGDEHLLSRRLDPNMRVDINGREFHGWEQWVRIFREIRVKSIRYEEIRVQGDKVHLHTRLHVTIGDYEFTTETTIFIDKINGVWYIKEFHMN | 0.253 |

| Sequence | protease stability score |
| --- | --- |
| NEEHEVLERVVELFMEILDTGNERLSRELVDPHVRVIIGDKELHGREQVARFHKELHERVDHWEIHIRRIEFQGDKLHMDFELRNDYNGVRITTDLIILVKKVNGVWKLRAREVR | 0.271 |
| NEEKEEAERFTRQFLHSWRTGDEESLKRMADPNVRIIVGDYEKVGWEAIEETIKRLGIDHLEYHSVHVHVIGDKVNIHSDVRIQVNGQERDVQIHVHMRKINGRWFVESIRLNFH | 1.26 |
| NEEKELWHKDIEDLQRDWKTGDEDSVREQLDPDVRLDINGVEIIGMEEATRFIIELMREIRIHVNLERIIIQGDKIILHGNLVVEQGDKHHITRQTIDARKVDGRWFEHKVRVE | -0.033 |
| NEEKETADTFLRHLVHRLHTGDEDMLMRLADPHVLIIQGDKTYHGWHWFERNFLEQINRFKGLTVKVERKDVHLFENRLILEGTLHLEFNGRDVHIEQEIIVHKINGRWILTHYMLI | 0.813 |
| NEEKRDSDILRRHLLEVLDTGDWDRMHELADPNAKTHFNGRDHHGREDMTHLFRELGVKHQELRSVHLQGNYVEITIHVSVDGRHVHLRFFMVKIDGKWRIRHMEIEWL | 1.14 |
| NEEQKEAEDFMRMVSRIHETGDEDSLRRYFDPNVRIKDENHHLHGWKELIHWTHRVDHIEVRVKNVDIQGDKIHLDGEEIVRIDGVEVRRRVLFILTKVNGRWHIQEIRIE | 0.72 |
| NEEQNHAERMMRENLHNIMTGDEHKLHKLADPDARIEIGDKEIIGRELFSRILLELRFEITRVHIREITLIGDKVHVRTEEDVVIKVNGVEKRRHINSEWIFFKFNGQWLLKEVRFE | 1.34 |
| NEERSHSEEVARLISHAWETGDEETLREQVDPHVKLVIGDKTFHGREEALTIIVQLRLRTVEIHDMKVVNGRLNLFTLWHIEIDGRRVLHHVVIHIEKIDGRWVMTEVRVH | 2.1 |
| NEHEETIEILFRDIVHVLRTGDWKLFSDLMDPHARYVIGDKTFHGRESWVREFDRLLEQIKGVRFDVRHVNVVGDKVHAFTDWEFNGVMFDTRLDLHIVDGRIKEMRLEIR | 1.12 |
| NEHEEYARRQLELWLHATRTGDEETVRRLADPDVRVIVDGREHHGMEQLLRWMIELRITDFKEDTYEIQGNKIKIRGILYIEIGDKHETRFTTIELNWFNGVLKHIKVEVR | 1.28 |
| NEHEKLLKESLEELRHALRTGDEESLERLVDPHARMVVNGVTYHGREYLHRFFHRIDYFHNEHLDVKEVHVQGDKIHFDVVTHGVFHVGDKKIKDTIRLSSIAEKIDGRWFNREIFHH | 0.412 |
| NEHKEEALHALQLWLRYYETGNEDSLREMLDPNVRVVINGKELHGMELFLDYIVDTRDRIKGLRIIIDDIEIHYVGDKVHVNIRGISYFNGREHEVEINIFSRKINGKWYLSSLELRVN | 2.55 |
| NEIEEIVERLWRLYIQNRLTGDEDQMSRLADPHTRVHIHIGDKHIDIHGMENTARLTTKLRREIRMEIEIHHVTVQGNKLHAEVRLILHIGDKILESDTRIINIFVDGKLRTVHIHIE | 1.32 |
| NEIEELVRESLELLAHALETGDEKLMTELADPDTRLIVNGRHLWGWELHLMFLTRFDHIETRIRLTEMEVQGEKVNSRGDMDVIVNVDGQRDRKRHEFIIISTKINGRWRLKSVILR | 1.57 |
| NEINRHLHEAFKKLINVMMTGDEEESTELLDPNARINFNGKDFWGWNELRKSMHEARIHHIQITSVRYIGDKIIIHGTVDGEFDGQRKEVEMEIFSRKFNGQWFFESIIIR | 1.28 |
| NEKEEESKRFIELFMELIVTGNEEVLYKLADPTVQWRADVDGQEINLHGWEHIHDEINKFPNITLELEEREIQGDKVDIRTRLHIGDKTRDTRVIIIVINGRVKQIHIEIR | 2.28 |
| NEKEELLRKIMDMLIRHWETGDFEKLMELADPNVRLHYEQGDKEHHHHGREDVAKFIEELLRMLGVDHWHLEKIEIVGEKLHLHGRIHVNGRTIDLRIHWVVVNGVLKSVRIILG | 1.14 |
| NELDKHTKEFAERWIKSVETGDWRSEEHLLDPHVKLETKVNGRDVRVVGREEVHRYLRELHEELGVDKVEFITRRIRLQGDKIDIDGELRINGRTHEAHIHLDIINGRIHSVRLQWT | 1.44 |
| NELEDLVRWAWQLIVESHQTGNEHMMEELADPNMRIHINGVDLVGRKDFRKMLKDHRDRVDHLEVELTDFILIDGRVIVHGQINIQIGDKREERRVRLFLLKINGKWRIEKLEVE | 1.64 |
| NELEDRFDYAMKLWIDILRTGDEHQFEEMADPNVRIIDGDKHNVGREILYFLLWKFGFDNFEFRLHDFKIQGEKIHIDGHFRVDGQTHRVHFVVLKIDGRWLVESVERK | 2.01 |
| NELEEEAHRKMEKVLRHLQTGDEDSLHRLLDPNVRLIVGDKEMHGRERAVEVLSRILKEMGVKHIKLRRFSVFNGVAHTDSELNQGEYVHNLHLVIEKVDGQWVMRSLHIE | 1.41 |
| NELEKETHEITRRWIEILLTGNEEDWAKLADPHVRIDINGKKYVGREMVVEYLRELLDKIKNLQFHITRIHDQGDKSEIDGRLEYNGRKHEARVEIWIIDGKIRSEHYSIR | 2.2 |
| NELEKHLREMTREMLEAWRTGDFDHLEHLADPHVRIETIYNGQREEFHGREWLIKAVERLDRLMGIDHIYFQEWTTIGDFVDVDLRTQVGDKRIRLHMELNVVNGRIKFHRIEVE | 1.24 |
| NELEKWVEQATREILRVMETGDPNETEKLIDPHVRREQGEFIYHGWENITHFMEHARFERYKLHDVDLQGDYVNLNGRLDGVYNGKKERTEVEFYVLKINGRWHVTSMHVH | 1.28 |
| NELHKEYRHMLHILRHIIETGNERALEENMDPNYRIEIGDKRIHGREKALEFWWRLNKRVDHLELHDEHINLFEGHVEIDGRLILKQGEYIEESKTTIFIVKVNGRWVLRSFRVE | 1.86 |
